In PMC6581175, “Versatile Oxidase and Dehydrogenase Activities of Bacterial Pyranose 2-Oxidase Facilitate Redox Cycling with Manganese Peroxidase In Vitro” (Applied and Environmental Microbiology, 2019):

Legend:
[1] = test system: CCn1c(=N[N]c2sc3cc(S(=O)(=O)O)ccc3[n+]2CC)sc2cc(S(=O)(=O)O)ccc21; assay: purified protein; conditions: pH 7.5; 30.0 °C
KaPOx = biological target: T1, KaPOx (Kitasatospora aureofaciens, UniProt A0A1E7NAU4); assay: spectrophotometric electron acceptor reduction; conditions: apparent, 30 mM D-glucose, nitrogen-bubbled solutions, 50 mM Britton-Robinson pH 7.5, 30°C, kcat per dimer
T1 construct: gene HS99_0024835
T1 sequence (A0A1E7NAU4 1-545): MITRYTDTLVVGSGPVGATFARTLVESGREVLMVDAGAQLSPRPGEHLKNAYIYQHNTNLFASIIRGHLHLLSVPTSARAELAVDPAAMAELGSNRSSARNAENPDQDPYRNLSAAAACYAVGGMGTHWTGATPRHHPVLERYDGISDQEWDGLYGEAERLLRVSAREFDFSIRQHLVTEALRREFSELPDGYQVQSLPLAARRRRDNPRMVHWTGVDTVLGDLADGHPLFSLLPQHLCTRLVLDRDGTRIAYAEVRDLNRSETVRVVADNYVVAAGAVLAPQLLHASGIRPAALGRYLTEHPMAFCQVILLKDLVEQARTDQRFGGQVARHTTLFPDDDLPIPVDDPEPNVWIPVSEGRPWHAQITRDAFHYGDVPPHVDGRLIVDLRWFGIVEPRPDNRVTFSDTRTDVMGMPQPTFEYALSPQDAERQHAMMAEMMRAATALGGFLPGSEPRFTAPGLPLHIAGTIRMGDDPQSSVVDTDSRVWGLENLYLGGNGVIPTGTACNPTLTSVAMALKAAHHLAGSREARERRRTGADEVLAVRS

purified protein [2] = substrate: O=C1C=CC(=O)C=C1; assay: purified protein; conditions: apparent, electron acceptor, 30 mM D-glucose, nitrogen-bubbled solutions, 50 mM Britton-Robinson pH 7.5, 30°C, kcat per dimer
purified protein [3] = substrate: O=C1C(Cl)=CC(=Nc2ccc(O)cc2)C=C1Cl; assay: purified protein; conditions: apparent, electron acceptor, 30 mM D-glucose, nitrogen-bubbled solutions, 50 mM Britton-Robinson pH 7.5, 30°C, kcat per dimer
purified protein [4] = substrate: O=C1O[C@H](CO)[C@@H](O)[C@H](O)[C@H]1O; assay: purified protein; type: biochemical, Kitasatospora aureofaciens; conditions: apparent, electron donor, O2 at air saturation (about 250 uM), 50 mM Britton-Robinson pH 7.5, 30°C, kcat per dimer

Work on KaPOx (Kitasatospora aureofaciens) yielded a Km [1] of 40 ± 0 µM, a Vmax [1] of 6.1 µmol/min/mg and a kcat/Km [1] of 309000 M⁻¹ s⁻¹.

With Ferrocenium ion the Km (KaPOx) was 1030 ± 1000 µM.

B1: KaPOx (Kitasatospora aureofaciens) (protein)
chain: MITRYTDTLVVGSGPVGATFARTLVESGREVLMVDAGAQLSPRPGEHLKNAYIYQHNTNLFASIIRGHLHLLSVPTSARAELAVDPAAMAELGSNRSSARNAENPDQDPYRNLSAAAACYAVGGMGTHWTGATPRHHPVLERYDGISDQEWDGLYGEAERLLRVSAREFDFSIRQHLVTEALRREFSELPDGYQVQSLPLAARRRRDNPRMVHWTGVDTVLGDLADGHPLFSLLPQHLCTRLVLDRDGTRIAYAEVRDLNRSETVRVVADNYVVAAGAVLAPQLLHASGIRPAALGRYLTEHPMAFCQVILLKDLVEQARTDQRFGGQVARHTTLFPDDDLPIPVDDPEPNVWIPVSEGRPWHAQITRDAFHYGDVPPHVDGRLIVDLRWFGIVEPRPDNRVTFSDTRTDVMGMPQPTFEYALSPQDAERQHAMMAEMMRAATALGGFLPGSEPRFTAPGLPLHIAGTIRMGDDPQSSVVDTDSRVWGLENLYLGGNGVIPTGTACNPTLTSVAMALKAAHHLAGSREARERRRTGADEVLAVRS
notes: full-length synthetic gene, C-terminal 6xHis kept, N-terminal T7 tag excluded, pET-21b(+), E. coli T7 Express; no signal peptide predicted
Work on B1 yielded a Km (purified protein [2]) of 80 ± 100 µM, a Vmax (purified protein [2]) of 12.2 µmol/min/mg and a kcat (purified protein [2]) of 24.9 ± 7.1 s⁻¹. It also gave a kcat/Km (purified protein [2]) of 311000 M⁻¹ s⁻¹, a Km (purified protein [3]) of 30 ± 0 µM and a Vmax (purified protein [3]) of 4.4 µmol/min/mg. For the same molecule, the kcat (purified protein [3]) was 9.4 ± 1.1 s⁻¹, the kcat/Km (purified protein [3]) was 313000 M⁻¹ s⁻¹ and the Km (purified protein [4]) was 28700 ± 2400 µM. For the same molecule, the Vmax (purified protein [4]) was 0.8 µmol/min/mg, the kcat (purified protein [4]) was 1.8 ± 0.1 s⁻¹ and the kcat/Km (purified protein [4]) was 60 M⁻¹ s⁻¹.
